Laboratory results: patent publication US20100235935
Numbering of substitutions follows the chain as printed.

Legend:
recombinant nesfatin-1 = biological target: T1, recombinant nesfatin-1 (UniProt P81117)
T1 sequence: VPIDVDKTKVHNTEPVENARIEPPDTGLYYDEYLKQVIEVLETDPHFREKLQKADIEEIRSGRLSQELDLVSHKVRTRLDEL

[1] = system: T2, pladin mutant A4 (Lys28→Ala)
T2 sequence: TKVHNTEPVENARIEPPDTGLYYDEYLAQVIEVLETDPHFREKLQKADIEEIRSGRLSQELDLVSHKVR

[2] = system: T3, pladin mutant A5 (Lys13→Ala)
T3 sequence: T2 sequence with R13A, A28K

acetylated rPladin = system: T4, acetylated rPladin
T4 sequence: T2 sequence with A28K

[3] = system: T5, recombinant pladin (plasma anti-diabetic nucb2 peptide)
T5 sequence: T2 sequence with A28K

Sequence of plasmin (P00747 20-580): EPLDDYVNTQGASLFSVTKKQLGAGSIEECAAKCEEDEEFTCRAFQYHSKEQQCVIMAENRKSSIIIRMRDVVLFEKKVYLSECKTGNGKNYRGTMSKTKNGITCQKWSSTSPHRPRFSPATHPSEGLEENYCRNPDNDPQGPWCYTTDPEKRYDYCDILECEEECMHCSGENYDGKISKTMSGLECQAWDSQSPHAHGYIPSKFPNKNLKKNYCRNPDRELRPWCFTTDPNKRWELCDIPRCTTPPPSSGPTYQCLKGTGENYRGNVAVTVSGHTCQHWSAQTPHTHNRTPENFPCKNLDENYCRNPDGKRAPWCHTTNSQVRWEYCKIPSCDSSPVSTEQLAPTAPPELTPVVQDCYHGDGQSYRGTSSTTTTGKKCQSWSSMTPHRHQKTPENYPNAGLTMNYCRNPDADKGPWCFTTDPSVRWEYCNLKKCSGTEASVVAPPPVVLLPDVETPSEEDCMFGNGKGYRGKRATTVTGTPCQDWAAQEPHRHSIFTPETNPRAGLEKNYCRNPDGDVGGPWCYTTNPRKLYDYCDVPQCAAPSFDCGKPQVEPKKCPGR
Sequence of plasmin (P00747 581-810): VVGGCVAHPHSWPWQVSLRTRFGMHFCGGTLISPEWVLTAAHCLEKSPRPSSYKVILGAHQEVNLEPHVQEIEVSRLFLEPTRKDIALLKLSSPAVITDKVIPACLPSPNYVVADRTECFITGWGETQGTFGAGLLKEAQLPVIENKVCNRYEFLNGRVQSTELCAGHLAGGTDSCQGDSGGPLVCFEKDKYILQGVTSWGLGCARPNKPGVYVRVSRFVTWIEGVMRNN

plasmin
digestion by plasmin in vitro (recombinant nesfatin-1): Nesfatin-1 was completely digested by plasmin within 2 hours
plasmin proteolysis in vitro [1]: resistant to plasmin proteolysis
plasmin proteolysis in vitro [2]: resistant to plasmin proteolysis
plasmin proteolysis in vitro (acetylated rPladin): resistant to plasmin proteolysis
degradation on incubation with plasmin in vitro [3]: when rPladin was incubated with plasmin, it was rapidly degraded
